We go through five molecules from US20180169257A1 (Seagen, published 2018).

Where only a bound is given, the exact number is not on record here.

As usually defined, the Kd is the constant that tells how readily two partners part at equilibrium. Lower therefore signals tighter binding. Usually EC50 stands for the concentration at which the effect is half-maximal.

In assay [1] the target is T1, human NTB-A (human, UniProt Q96DU3 22-332).
T1 sequence: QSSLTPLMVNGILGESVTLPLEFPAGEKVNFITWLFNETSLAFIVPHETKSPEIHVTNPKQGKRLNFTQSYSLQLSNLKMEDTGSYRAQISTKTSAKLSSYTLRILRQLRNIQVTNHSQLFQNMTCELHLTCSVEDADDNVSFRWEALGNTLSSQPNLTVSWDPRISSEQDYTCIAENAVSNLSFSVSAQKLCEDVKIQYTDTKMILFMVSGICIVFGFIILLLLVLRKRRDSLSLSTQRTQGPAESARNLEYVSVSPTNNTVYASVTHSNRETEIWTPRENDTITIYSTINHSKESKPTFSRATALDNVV
Kind of assay: cell-based or functional assay.

For assay [2], the target named is T1, human NTB-A. Kind of assay: saturation binding of Alexa Fluor 647-labeled antibody on Ramos cells, flow cytometry. The protocol:
(§1) Antigen positive Ramos cells were plated at 1×10⁵ cells per well in a 96 well V-bottom plate (Thermo Scientific, Rochester, N.Y.). Three-fold serial dilutions of 2× concentrated antibodies were prepared in FACs buffer (PBS+2% fetal bovine serum) and were added to the cells in duplicate. The antibody solutions were incubated with cells for 1 hour on ice, protected from light. The cells were washed twice with FACs buffer and analyzed on the LSRII flow cytometer (BD BioSciences, San Jose, Calif.). KD values were determined with GraphPad Prism software (La Jolla, Calif.). Anti-human NTB-A antibodies h20F3_HDLD and chimeric 20F3 were tested for binding to 293-F17 cells overexpressing cynomolgus-NTB-A. 293-F17/cynomolgus-NTB-A cells were plated at 5×10⁵ cells/well in FACS buffer (PBS+2% fetal bovine serum+0.02% azide) and incubated with 20 μg/mL antibody for 30 minutes on ice. The cells were washed twice and stained with 30 μg/mL goat anti-human IgG-PE (Jackson ImmunoResearch, West Grove, Pa.) for 30 minutes, on ice and protected from light. Cells were again washed twice with FACs buffer. Stained cells were analyzed on the FACs Calibur flow cytometer (BD BioSciences, San Jose, Calif.).
Background: A flow cytometer gives signals particle by particle.

Assay [3] deals with T1, human NTB-A. Briefly: competition flow cytometry on Ramos cells; competitor 5 nM mouse 20F3-Alexa Fluor 647. The protocol: (§2) Antigen positive Ramos cells were plated at 1×10⁵ cells per well in a 96 well V-bottom plate (Thermo Scientific, Rochester, N.Y.). Fifty-fold serial dilutions of antibodies were prepared in FACs buffer (PBS+2% fetal bovine serum) and were added to the cells in duplicate. The antibody solutions were incubated with cells for 1 hour on ice, protected from light. The cells were washed twice with FACs buffer and analyzed on the LSRII flow cytometer (BD BioSciences, San Jose, Calif.). EC50 values were determined with GraphPad Prism software (La Jolla, Calif.).

Assay [4] concerns the target T1, human NTB-A. Briefly: cell-based or functional assay. This is another data set of the same source.
For assay [5], the target named is T1, human NTB-A. Kind of assay: antigen binding competition assay on Ramos cells. On the procedure:
as §2

Assay [6] deals with T1, human NTB-A. Briefly: saturation binding of Alexa Fluor 647-labeled antibody (h20F3_HDLD-AF647) on Ramos cells, flow cytometry. The protocol:
as §1

B1: c20F3-1910(2) ADC (other)
VH: QIQLVQSGPELKKPGETVKISCKASGYTFTNYGMNWVKQAPGKDLKWMGWINTYSGEPRYADDFKGRFAFSLEKSANTAYLQINNLKNEDMATYFCARDYGRWYFDVWGTGTTVTVSS
VL: QIVLSQSPAILSASPGEKVTMTCRASSSVSHMHWYQQKPGSSPKPWIYATSNLASGVPARFSGSGSGTSYSLTISRVEAEDAATYYCQQWSSTPRTFGGGTKLEIKR
modifications: PBD dimer drug-linker 1910, load 2 by its name; attachment site not stated for the chimeric antibody
As to B1, in the assay with human NTB-A [1], the “IC50, 96 hour cytotoxicity (Cell-Titer Glo), resting human B cells, donor 1” value is 1.47 µg/mL; the “IC50, 96 hour cytotoxicity (Cell-Titer Glo), resting human B cells, donor 2” value turned out to be 1.27 µg/mL; the “IC50, 96 hour cytotoxicity (Cell-Titer Glo), resting human B cells, donor 3” value is 3.42 µg/mL; the “IC50, 96 hour cytotoxicity (Cell-Titer Glo), resting human T cells, donor 4” value is > 10 µg/mL. Also, in the assay with human NTB-A [1], the “IC50, 96 hour cytotoxicity (Cell-Titer Glo), resting human T cells, donor 5” value was > 10 µg/mL and the “IC50, 96 hour cytotoxicity (Cell-Titer Glo), resting human T cells, donor 6” value is > 10 µg/mL.

B2: c20F3-vcMMAE(4) ADC (other)
VH: QIQLVQSGPELKKPGETVKISCKASGYTFTNYGMNWVKQAPGKDLKWMGWINTYSGEPRYADDFKGRFAFSLEKSANTAYLQINNLKNEDMATYFCARDYGRWYFDVWGTGTTVTVSS
VL: QIVLSQSPAILSASPGEKVTMTCRASSSVSHMHWYQQKPGSSPKPWIYATSNLASGVPARFSGSGSGTSYSLTISRVEAEDAATYYCQQWSSTPRTFGGGTKLEIKR
modifications: MMAE via a cathepsin-cleavable valine-citrulline linker, load 4 by its name; attachment sites not stated
With B2, in the assay with human NTB-A [1], the “IC50, 96 hour cytotoxicity (Cell-Titer Glo), resting human B cells, donor 1” value was > 10 µg/mL; the “IC50, 96 hour cytotoxicity (Cell-Titer Glo), resting human B cells, donor 2” value is > 10 µg/mL; the “IC50, 96 hour cytotoxicity (Cell-Titer Glo), resting human B cells, donor 3” value is > 10 µg/mL.

B3: chimeric 20F3 (antibody, V domains shown)
VH: QIQLVQSGPELKKPGETVKISCKASGYTFTNYGMNWVKQAPGKDLKWMGWINTYSGEPRYADDFKGRFAFSLEKSANTAYLQINNLKNEDMATYFCARDYGRWYFDVWGTGTTVTVSS
VL: QIVLSQSPAILSASPGEKVTMTCRASSSVSHMHWYQQKPGSSPKPWIYATSNLASGVPARFSGSGSGTSYSLTISRVEAEDAATYYCQQWSSTPRTFGGGTKLEIKR
notes: It was detected with goat anti-human IgG, so the constant regions are human, but they are not specified
B3 displayed a Kd with human NTB-A [2] of 1.68 nM. That is a single-digit nanomolar value.

B4: humanized 20F3 HDLD antibody (antibody, V domains shown)
VH: QIQLVQSGSELKKPGASVKVSCKASGYTFTNYGMNWVRQAPGQDLKWMGWINTYSGEPRYADDFKGRFVFSLDKSVNTAYLQISSLKAEDTAVYYCARDYGRWYFDVWGQGTTVTVSS
VL: QIVLSQSPATLSLSPGERATMSCRASSSVSHMHWYQQKPGQAPRPWIYATSNLASGVPARFSGSGSGTDYTLTISSLEPEDFAVYYCQQWSSTPRTFGGGTKVEIKR
notes: also called h20F3_HDLD; h20F3_HDLD-AF647
On to B4, for which the EC50 in the assay with human NTB-A [3] was 3 nM. Further, in the assay with human NTB-A [4], the “Maximum % Phagocytosis (ADCP), Raji cell line” value came to 48%; the “Maximum % Phagocytosis (ADCP), WIL2-S cell line” value was 45%; the “Maximum % Phagocytosis (ADCP), normal human T cells” value came to 42%. Besides, the EC50 with human NTB-A [5] is ~12 nM. The same molecule had a Kd in the assay with human NTB-A [6] of 2.2 nM.

B5: h20F3ec (antibody, human IgG1, kappa, V domains shown)
VH: QIQLVQSGSELKKPGASVKVSCKASGYTFTNYGMNWVRQAPGQDLKWMGWINTYSGEPRYADDFKGRFVFSLDKSVNTAYLQISSLKAEDTAVYYCARDYGRWYFDVWGQGTTVTVSS
VL: QIVLSQSPATLSLSPGERATMSCRASSSVSHMHWYQQKPGQAPRPWIYATSNLASGVPARFSGSGSGTDYTLTISSLEPEDFAVYYCQQWSSTPRTFGGGTKVEIKR
Turning to B5, in the assay with human NTB-A [4], the “Maximum % Phagocytosis (ADCP), Raji cell line” value worked out at 44%; the “Maximum % Phagocytosis (ADCP), WIL2-S cell line” value is 45%; the “Maximum % Phagocytosis (ADCP), normal human T cells” value amounted to 33%.
